Reference: US12458618B2, “Compounds and methods for the detection of TRPV-6 cancers and drug delivery” (Soricimed Biopharma Inc., priority 2009, dated 2025)
Where no end group is shown, it is not given here. Cy5.5 maleimide = Cy5.5 label attached to cysteine thiol by maleimide-activated reaction

Tests used:
TRPV6 [1] = biological target: T1, TRPV6 (Homo sapiens, UniProt Q9H1D0); test: Equilibrium dissociation constant (Kd) in an LNCaP model; assay type: binding; parameters: endogenous in cells; host or cells: LNCaP
T1 sequence (Q9H1D0 1-765): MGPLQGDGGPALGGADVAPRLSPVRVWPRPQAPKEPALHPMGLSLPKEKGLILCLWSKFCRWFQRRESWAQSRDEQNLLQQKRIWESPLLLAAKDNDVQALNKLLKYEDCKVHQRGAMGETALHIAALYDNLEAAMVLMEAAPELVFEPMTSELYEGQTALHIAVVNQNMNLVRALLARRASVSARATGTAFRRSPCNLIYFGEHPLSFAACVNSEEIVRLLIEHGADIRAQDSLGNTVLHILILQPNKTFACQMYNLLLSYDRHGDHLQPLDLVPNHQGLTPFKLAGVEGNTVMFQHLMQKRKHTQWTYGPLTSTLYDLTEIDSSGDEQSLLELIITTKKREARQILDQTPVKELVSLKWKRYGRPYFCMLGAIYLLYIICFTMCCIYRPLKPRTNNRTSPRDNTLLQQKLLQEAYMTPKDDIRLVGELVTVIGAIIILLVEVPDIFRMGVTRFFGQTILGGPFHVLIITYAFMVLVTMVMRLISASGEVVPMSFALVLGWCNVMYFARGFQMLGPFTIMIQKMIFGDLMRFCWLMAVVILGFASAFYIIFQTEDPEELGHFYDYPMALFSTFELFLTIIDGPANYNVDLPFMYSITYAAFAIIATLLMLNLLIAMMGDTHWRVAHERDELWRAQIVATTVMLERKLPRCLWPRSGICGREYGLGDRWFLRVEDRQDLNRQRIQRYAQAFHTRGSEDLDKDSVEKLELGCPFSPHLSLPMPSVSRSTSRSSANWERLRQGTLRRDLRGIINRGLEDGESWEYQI
Source text: As noted above, a TRPV6-binding peptide of the invention will have calcium channel binding activity. The peptides having such activity are readily identified with any known assays suitable for measuring binding of the peptides with TRPV6. For example, in one embodiment, a peptide having calcium channel inhibition activity is optionally identified by determining that the peptide reduces calcium channel activity by reducing (i.e., partially or fully inhibiting) the flow of calcium through calcium channels. TRPV6-binding activity can also be measured using methods such as: internalized calcifluors (such as FURA-2 am); whole cell patch clamping to measure inhibition calcium currents electrophysiologically; equilibrium binding assays using peptides labeled with detectable tags such as radioactive or fluorescent tags; and/or NMR determination of ‘bound’ and ‘unbound’ peptides. In some embodiments, the TRPV6-binding peptides also have i) calcium channel blocking and ii) lack of paralytic activity.
Calcium channel binding activity is optionally identified by using a readily available cell line (e.g. human embryonic kidney cell lines-HEK293) transfected with an expression vector for TRPV6. Such transfected cells are readily aliquoted and stored (typically −80° C.) until required. […]

[2] = Tissue distribution of Cy5.5-labeled peptides after i.v. injection, optical imaging; assay type: in vivo, CD1 mice
Source text: SorC13 and SorC27 were labeled with the near-infrared probe, Cy5.5. SorC13 was labeled at lysine-1 and lysine-8 with the infrared fluorescent probe cy5.5 through reaction with Cy5.5 NHS ester-activated process. SorC27 was labeled at the single cysteine thiol with Cy5.5 maleimide-activated reaction. The labeled peptides were purified with a combination of size exclusion chromatography and HPLC. The label, Cy5.5, fluoresces in the infra-red region after excitation with a scanning laser. The low energy laser is able to penetrate the animal to about 1 cm and, thus, by scanning prone and supine positions, the presence of the tagged peptides can be quantified in three dimensions.
Cy5.5-labeled peptides were intravenously injected into CD1 mice (4 for each compound) at 100 μg per animal in 100 μL, and animals were imaged live using an optical imaging system, Optix explorer (GE Healthcare Systems) at different time points (30 min, 90 min, 4 h). […] The bio-distribution of the labeled peptides in different organs and tissues were visualized and relatively quantified by optical imaging analysis. This protocol allows for visualization of the location of the labeled peptides and how the location changes over time. […] Nodes that accumulated the labeled peptides are indicated by line 1 (superfacial cervical nodes), line 4 (axillary nodes), line 5 (brachial nodes), line 8 (mesenteric nodes) and line 9 (inguinal nodes). FIGS. 2, 3 and 4 show the amounts of labeled peptides in various organs ex vivo.

TRPV6 [3] = biological target: T1, TRPV6; test: Co-localization with TRPV6 antibody in HEK-293 cells transfected with a TRPV6 expression vector; assay type: cell-based
Protocol: HEK-293 cells were transfected with a TRPV6 expression vector and incubated with fluorescently labeled antibodies to the N-terminal peptides of TRPV6 as well as fluorescently labeled SorC27 (SorC27-cy5.5). HEK-293 cells that were not transfected with a TRPV6 expression vector were also incubated with fluorescently labeled anti-TRPV6 and SorC27-cy5.5 as a negative control (FIG. 6A).

[4] = test system: TRPV6-rich ovarian (SKOV-3 cells) tumors; test: Localization of SorC27-cy5.5 to xenografted ovarian tumors in vivo (optical imaging); parameters: species or system nude CD1 mice; conditions: 100 μg intraperitoneally, SKOV-3 ovarian xenograft
Protocol: (§1) Mice xenografted with a TRPV6-rich ovarian (SKOV-3 cells) and prostate (DU145 cells) tumors were injected (intraperitoneally) with the fluorescently-labeled TRPV6-binding peptide SorC27-cy5.5. SorC27 was labeled with the near-infrared probe Cy5.5 at the single cysteine thiol using a Cy5.5 maleimide-activated reaction. The labeled peptides were purified with a combination of size exclusion chromatography and HPLC. Cy5.5, fluoresces in the infra-red region after excitation with a scanning laser. The low energy laser is able to penetrate the animal to about 1 cm and, thus, by scanning, the presence of the tagged peptides can be quantified in three dimensions. Cy5.5-labeled peptides were intraperitoneally injected into nude CD1 mice at 100 μg per animal, and animals were imaged live using an optical imaging system, Optix explorer (GE Healthcare Systems) at different time points (30 min, 90 min, 4 h).

[5] = test system: prostate (DU145 cells) tumors; test: Localization of SorC27-cy5.5 to xenografted prostate tumors in vivo (optical imaging); parameters: species or system nude CD1 mice; conditions: 100 μg intraperitoneally, DU145 prostate xenograft
Protocol: as §1

[6] = test system: ovarian TRPV6-rich tumor (SKOV-3 cells); test: SorC27-cy5.5 in mice xenografted with SKOV-3 tumor (Example 9); assay type: in vivo; conditions: SKOV-3 xenograft
Protocol: Mice xenografted with an ovarian TRPV6-rich tumor (SKOV-3 cells) are injected with the fluorescently-labeled TRPV6-binding peptide SorC27-cy5.5.

TRPV6 [7] = biological target: T1, TRPV6; test: Co-localization of SorC27-cy5.5 and fluorescently labeled TRPV6 antibodies in cancer cell lines; assay type: cell-based; parameters: endogenous in cells; host or cells: PC-3, T 47D, SKOV-3
Source text: The level of TRPV6 immunofluorescence and SorC27-cy5.5 fluorescence are both increased in the transfected cells with increased TRPV6 expression shown in the B1-B3 series of FIG. 7 compared to the cells in the A1-A3 series of FIG. 7.
The level of TRPV6 immunofluorescence and SorC27-cy5.5 fluorescence are both increased in the transfected cells with greater TRPV6 expression shown in the B1-B3 series of FIG. 8 compared to the cells in the A1-A3 series of FIG. 8.
The level of TRPV6 immunofluorescence and SorC27-cy5.5 fluorescence are both increased the transfected cells with greater TRPV6 expression shown in the B1-B3 series of FIG. 9 compared to the cells in A1-A3 series of FIG. 9.

TRPV6 [8] = biological target: T1, TRPV6; test: Fluorescently tagged peptide on staged tumor tissue micro-arrays (Example 7); parameters: from tissue; host or cells: ovarian cancer tumour sections on tissue micro-arrays; conditions: Stage I to Stage IV tissue micro-arrays
Protocol: Fluorescently tagged TRPV6-binding peptides are useful to determine the stage of a tumor by direct incubation of Tissue Micro-Arrays (TMA) with the peptide reagent. SorC27-cy5.5 compound is incubated with cells from a subject and fluorescence levels are compared to levels from control staged tumor samples.

| Substance | Kd (TRPV6 [1]) [nM] | predominant tissue localization ([2]; 100 μg i.v., CD1 mice, imaging up to 4 h) | detectability in tissues after perfusion ([2]; 24 hours, after perfusion to remove blood and lymph) | accumulation in lymph nodes (superfacial cervical, axillary, branchial, mesenteric, inguinal) ([2]; four hours after i.v. injection of 100 μg) | fluorescence in non-transfected cells (negative control) (TRPV6 [3]; HEK293 cells not transfected with the TRPV6 expression vector) | binding to TRPV6 (co-localization with anti-TRPV6) (TRPV6 [3]; HEK-293 cells transfected with TRPV6 expression vector) | time tumor is clearly detected in vivo after injection [4] | time tumor is clearly detected in vivo after injection [5] | detection of xenografted tumor by fluorescence [6] | SorC27-cy5.5 fluorescence in TRPV6-transfected versus non-transfected cells (TRPV6 [7]; PC-3) | SorC27-cy5.5 fluorescence in TRPV6-transfected versus non-transfected cells (TRPV6 [7]; SKOV-3) | SorC27-cy5.5 fluorescence in TRPV6-transfected versus non-transfected cells (TRPV6 [7]; T 47D) | co-localization with TRPV6 antibody (TRPV6 [7]; breast cancer cell line T 47D) | co-localization with TRPV6 antibody (TRPV6 [7]; ovarian cancer cell line SKOV-3) | co-localization with TRPV6 antibody (TRPV6 [7]; prostate cancer cell line PC-3) | fluorescent signal with tumor stage (TRPV6 [8]) |
| --- | --- | --- | --- | --- | --- | --- | --- | --- | --- | --- | --- | --- | --- | --- | --- | --- |
| HPSKVDLPR [SorC9, HPSKVDLPR] | ~90 | – | – | – | – | – | – | – | – | – | – | – | – | – | – | – |
| SorC27-cy5.5: SorC27 labeled at the single cysteine thiol with Cy5.5 maleimide-activated reaction (EGKLSSNDTEGGLC(Cy5.5 maleimide)KEFLHPSKVDLPR) | – | localize predominantly in lymph nodes, lung, liver and kidney | still detectable in these tissues | Significant accumulation | no fluorescence | bound to TRPV6 | at least 24 hours | at least 24 hours | detected in vivo | increased | increased | increased | co-localization of SorC27-cy5.5 and TRPV6 | co-localization of SorC27-cy5.5 and TRPV6 | co-localization of SorC27-cy5.5 and TRPV6 | increase in the intensity of the fluorescent signal |
